In PMC7111274 one finds stoichiometry N data, which are given here for four substances.

Common to all, as to experiment: SEC
Background: In gel filtration, larger molecules generally elute earlier.

The target in test [1] is PEDV 3CL^pro variant R294A (porcine epidemic diarrhea virus (FJZZ strain)).
The target in test [2] is PEDV 3CL^pro variant Q295A (porcine epidemic diarrhea virus (FJZZ strain)).
Test [3] addresses PEDV 3CL^pro variant R4A (porcine epidemic diarrhea virus (FJZZ strain)).
The target in test [4] is PEDV 3CL^pro variant S138A (porcine epidemic diarrhea virus (FJZZ strain)).

Turning to PEDV 3CL^pro variant R294A (enzyme), the stoichiometry N (usually the number of molecules, sites or subunits per partner or assembly) in test [1] was 2.

PEDV 3CL^pro variant Q295A (enzyme) gave a stoichiometry N in test [2] of 2. Take PEDV 3CL^pro variant R4A (enzyme): the stoichiometry N in test [3] turned out to be 2.

In turn, PEDV 3CL^pro variant S138A (enzyme) displayed a stoichiometry N in test [4] of 2.
